Assay results published in US20240261333A1 (published 2024).

Assays:
Test in all cases: co-IP, anti-FLAG, lysate of cells with C-FLAG B3GNT2; mass spectrometry
LMNA = target: T1, LMNA (human, UniProt P02545 1-646, limits assumed)
T1 construct: also called NP_733821.1
T1 sequence (looked up): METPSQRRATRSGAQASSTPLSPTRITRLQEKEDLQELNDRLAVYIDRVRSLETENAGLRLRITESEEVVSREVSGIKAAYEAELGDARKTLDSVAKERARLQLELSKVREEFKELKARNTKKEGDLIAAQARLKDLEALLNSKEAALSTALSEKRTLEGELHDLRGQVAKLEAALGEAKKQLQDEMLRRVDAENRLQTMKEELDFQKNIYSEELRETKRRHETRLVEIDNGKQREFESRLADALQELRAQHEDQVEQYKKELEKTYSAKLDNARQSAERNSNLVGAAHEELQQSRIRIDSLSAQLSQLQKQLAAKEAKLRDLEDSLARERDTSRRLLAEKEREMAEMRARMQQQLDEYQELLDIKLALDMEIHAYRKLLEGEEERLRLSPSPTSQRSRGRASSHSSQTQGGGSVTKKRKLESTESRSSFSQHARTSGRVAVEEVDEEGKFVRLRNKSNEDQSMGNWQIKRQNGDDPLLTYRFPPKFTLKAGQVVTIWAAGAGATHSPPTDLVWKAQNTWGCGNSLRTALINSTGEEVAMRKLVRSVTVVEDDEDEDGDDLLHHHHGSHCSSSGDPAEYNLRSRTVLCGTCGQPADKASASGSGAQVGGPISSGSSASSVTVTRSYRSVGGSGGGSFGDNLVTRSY
Method: (§1) Cells were plated in 10-cm cell culture dishes and grown to 60-80% confluency. For each condition, two biological replicates were harvested for co-IP. Cells were washed with PBS and 4 mL of lysis buffer (20 mM HEPES, 1% Triton X-100, 150 mM NaCl, 1 mM EDTA, and 10% glycerol) containing protease inhibitor cocktail was added. Cells were scraped and lysate was incubated at 4° C. under rotary agitation for 1 h. Lysate was centrifuged at 14,000×g for 10 min at 4° C. Supernatant was transferred to a new tube and an aliquot was taken as the input. […] For Western blots, 10 μg/mL Chicken Anti-FLAG (Aves labs ET-DY100) and IgY control (R&D Systems AB-101-C) antibodies were biotinylated (Thermo Fisher Scientific 90407) and added to the respective conditions. Lysates with antibodies were incubated at 4° C. under rotary agitation overnight. For each mL of lysate, 50 μL of Pierce Protein A/G Magnetic Beads (Mass spectrometry; Thermo Fisher Scientific 88803) or Pierce Streptavidin Magnetic Beads (Western blot; Thermo Fisher Scientific 88817) was washed twice with lysis buffer. Lysates with antibodies were added to the beads and incubated at 4° C. under rotary agitation for 4 h. Beads were washed with lysis buffer 3 times and resuspended in lysis buffer for storage.
(§2) Magnetic beads were resuspended in 100 mM Tris pH 7.8, reduced, alkylated and digested with trypsin at 37° ° C. overnight. This solution was subjected to solid phase extraction to concentrate the peptides and remove unwanted reagents followed by injection onto a Shimadzu HPLC with fraction collector. Eight fractions were collected and after concentration were injected on a Waters NanoAcquity HPLC equipped with a self-packed Aeris 3 μm C18 analytical column 0.075 mm by 20 cm, (Phenomenex). Peptides were eluted using standard reverse-phase gradients. The effluent from the column was analyzed using a Thermo Orbitrap Elite mass spectrometer (nanospray configuration) operated in a data dependent manner for 54 minutes. The resulting fragmentation spectra were correlated against the known database using Proteome Discover 1.4 (Thermo Fisher Scientific).

C1orf68 = target: T2, C1orf68 (human, UniProt Q5T750 1-250)
T2 construct: also called NP_001019850.1
Method: as §1, §2

HNRNPA2B1 = target: T3, HNRNPA2B1 (human, UniProt P22626-2 1-341)
T3 construct: also called NP_002128.1 (+1)
Method: as §1, §2

G3BP1 = target: T4, G3BP1 (human, UniProt Q13283 2-466)
T4 construct: also called NP_005745.1
Method: as §1, §2

NUFIP2 = target: T5, NUFIP2 (human, UniProt Q7Z417 1-695)
T5 construct: also called NP_065823.1
T5 sequence (looked up): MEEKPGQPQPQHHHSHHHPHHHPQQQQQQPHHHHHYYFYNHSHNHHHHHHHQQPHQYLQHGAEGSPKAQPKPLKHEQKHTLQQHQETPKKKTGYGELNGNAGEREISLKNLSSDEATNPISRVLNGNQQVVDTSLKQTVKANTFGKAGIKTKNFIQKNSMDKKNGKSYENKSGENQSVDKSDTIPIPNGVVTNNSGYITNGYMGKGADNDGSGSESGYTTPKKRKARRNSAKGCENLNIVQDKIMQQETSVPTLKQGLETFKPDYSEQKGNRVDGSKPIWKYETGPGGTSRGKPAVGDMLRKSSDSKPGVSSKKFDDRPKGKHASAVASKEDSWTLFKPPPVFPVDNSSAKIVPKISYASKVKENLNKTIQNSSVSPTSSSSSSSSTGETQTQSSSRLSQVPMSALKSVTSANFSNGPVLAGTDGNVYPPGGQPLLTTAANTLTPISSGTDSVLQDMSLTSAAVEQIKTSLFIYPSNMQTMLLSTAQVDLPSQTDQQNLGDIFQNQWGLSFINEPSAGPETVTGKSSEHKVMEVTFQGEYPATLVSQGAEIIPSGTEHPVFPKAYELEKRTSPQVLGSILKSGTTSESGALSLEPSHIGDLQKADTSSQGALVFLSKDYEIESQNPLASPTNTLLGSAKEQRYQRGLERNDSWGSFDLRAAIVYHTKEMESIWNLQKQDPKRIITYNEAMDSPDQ
Method: as §1, §2

MYH11 = target: T6, MYH11 (human, UniProt P35749-3 1-1945, limits assumed)
T6 construct: also called NP_001035202.1 (+4)
Method: as §1, §2

PRBP1 = target: T7, PRBP1 (human, UniProt P26599 1-557)
T7 construct: Label 'PRBP1' is probably a misprint of PTBP1; also called NP_002810.1 (+4)
Method: as §1, §2

HUWE1 = target: T8, HUWE1 (human, UniProt Q7Z6Z7 1-4374)
T8 construct: also called NP_113584.3 (+11)
Method: as §1, §2

T2 sequence (Q5T750 whole entry): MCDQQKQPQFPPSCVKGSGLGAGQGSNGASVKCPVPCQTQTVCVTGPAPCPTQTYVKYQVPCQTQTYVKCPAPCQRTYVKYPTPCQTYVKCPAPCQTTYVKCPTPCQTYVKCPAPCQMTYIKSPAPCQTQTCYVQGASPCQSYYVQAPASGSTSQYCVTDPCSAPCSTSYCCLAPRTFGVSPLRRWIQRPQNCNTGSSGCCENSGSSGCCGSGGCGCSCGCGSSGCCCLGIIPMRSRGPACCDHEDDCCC
T8 sequence (Q7Z6Z7 whole entry): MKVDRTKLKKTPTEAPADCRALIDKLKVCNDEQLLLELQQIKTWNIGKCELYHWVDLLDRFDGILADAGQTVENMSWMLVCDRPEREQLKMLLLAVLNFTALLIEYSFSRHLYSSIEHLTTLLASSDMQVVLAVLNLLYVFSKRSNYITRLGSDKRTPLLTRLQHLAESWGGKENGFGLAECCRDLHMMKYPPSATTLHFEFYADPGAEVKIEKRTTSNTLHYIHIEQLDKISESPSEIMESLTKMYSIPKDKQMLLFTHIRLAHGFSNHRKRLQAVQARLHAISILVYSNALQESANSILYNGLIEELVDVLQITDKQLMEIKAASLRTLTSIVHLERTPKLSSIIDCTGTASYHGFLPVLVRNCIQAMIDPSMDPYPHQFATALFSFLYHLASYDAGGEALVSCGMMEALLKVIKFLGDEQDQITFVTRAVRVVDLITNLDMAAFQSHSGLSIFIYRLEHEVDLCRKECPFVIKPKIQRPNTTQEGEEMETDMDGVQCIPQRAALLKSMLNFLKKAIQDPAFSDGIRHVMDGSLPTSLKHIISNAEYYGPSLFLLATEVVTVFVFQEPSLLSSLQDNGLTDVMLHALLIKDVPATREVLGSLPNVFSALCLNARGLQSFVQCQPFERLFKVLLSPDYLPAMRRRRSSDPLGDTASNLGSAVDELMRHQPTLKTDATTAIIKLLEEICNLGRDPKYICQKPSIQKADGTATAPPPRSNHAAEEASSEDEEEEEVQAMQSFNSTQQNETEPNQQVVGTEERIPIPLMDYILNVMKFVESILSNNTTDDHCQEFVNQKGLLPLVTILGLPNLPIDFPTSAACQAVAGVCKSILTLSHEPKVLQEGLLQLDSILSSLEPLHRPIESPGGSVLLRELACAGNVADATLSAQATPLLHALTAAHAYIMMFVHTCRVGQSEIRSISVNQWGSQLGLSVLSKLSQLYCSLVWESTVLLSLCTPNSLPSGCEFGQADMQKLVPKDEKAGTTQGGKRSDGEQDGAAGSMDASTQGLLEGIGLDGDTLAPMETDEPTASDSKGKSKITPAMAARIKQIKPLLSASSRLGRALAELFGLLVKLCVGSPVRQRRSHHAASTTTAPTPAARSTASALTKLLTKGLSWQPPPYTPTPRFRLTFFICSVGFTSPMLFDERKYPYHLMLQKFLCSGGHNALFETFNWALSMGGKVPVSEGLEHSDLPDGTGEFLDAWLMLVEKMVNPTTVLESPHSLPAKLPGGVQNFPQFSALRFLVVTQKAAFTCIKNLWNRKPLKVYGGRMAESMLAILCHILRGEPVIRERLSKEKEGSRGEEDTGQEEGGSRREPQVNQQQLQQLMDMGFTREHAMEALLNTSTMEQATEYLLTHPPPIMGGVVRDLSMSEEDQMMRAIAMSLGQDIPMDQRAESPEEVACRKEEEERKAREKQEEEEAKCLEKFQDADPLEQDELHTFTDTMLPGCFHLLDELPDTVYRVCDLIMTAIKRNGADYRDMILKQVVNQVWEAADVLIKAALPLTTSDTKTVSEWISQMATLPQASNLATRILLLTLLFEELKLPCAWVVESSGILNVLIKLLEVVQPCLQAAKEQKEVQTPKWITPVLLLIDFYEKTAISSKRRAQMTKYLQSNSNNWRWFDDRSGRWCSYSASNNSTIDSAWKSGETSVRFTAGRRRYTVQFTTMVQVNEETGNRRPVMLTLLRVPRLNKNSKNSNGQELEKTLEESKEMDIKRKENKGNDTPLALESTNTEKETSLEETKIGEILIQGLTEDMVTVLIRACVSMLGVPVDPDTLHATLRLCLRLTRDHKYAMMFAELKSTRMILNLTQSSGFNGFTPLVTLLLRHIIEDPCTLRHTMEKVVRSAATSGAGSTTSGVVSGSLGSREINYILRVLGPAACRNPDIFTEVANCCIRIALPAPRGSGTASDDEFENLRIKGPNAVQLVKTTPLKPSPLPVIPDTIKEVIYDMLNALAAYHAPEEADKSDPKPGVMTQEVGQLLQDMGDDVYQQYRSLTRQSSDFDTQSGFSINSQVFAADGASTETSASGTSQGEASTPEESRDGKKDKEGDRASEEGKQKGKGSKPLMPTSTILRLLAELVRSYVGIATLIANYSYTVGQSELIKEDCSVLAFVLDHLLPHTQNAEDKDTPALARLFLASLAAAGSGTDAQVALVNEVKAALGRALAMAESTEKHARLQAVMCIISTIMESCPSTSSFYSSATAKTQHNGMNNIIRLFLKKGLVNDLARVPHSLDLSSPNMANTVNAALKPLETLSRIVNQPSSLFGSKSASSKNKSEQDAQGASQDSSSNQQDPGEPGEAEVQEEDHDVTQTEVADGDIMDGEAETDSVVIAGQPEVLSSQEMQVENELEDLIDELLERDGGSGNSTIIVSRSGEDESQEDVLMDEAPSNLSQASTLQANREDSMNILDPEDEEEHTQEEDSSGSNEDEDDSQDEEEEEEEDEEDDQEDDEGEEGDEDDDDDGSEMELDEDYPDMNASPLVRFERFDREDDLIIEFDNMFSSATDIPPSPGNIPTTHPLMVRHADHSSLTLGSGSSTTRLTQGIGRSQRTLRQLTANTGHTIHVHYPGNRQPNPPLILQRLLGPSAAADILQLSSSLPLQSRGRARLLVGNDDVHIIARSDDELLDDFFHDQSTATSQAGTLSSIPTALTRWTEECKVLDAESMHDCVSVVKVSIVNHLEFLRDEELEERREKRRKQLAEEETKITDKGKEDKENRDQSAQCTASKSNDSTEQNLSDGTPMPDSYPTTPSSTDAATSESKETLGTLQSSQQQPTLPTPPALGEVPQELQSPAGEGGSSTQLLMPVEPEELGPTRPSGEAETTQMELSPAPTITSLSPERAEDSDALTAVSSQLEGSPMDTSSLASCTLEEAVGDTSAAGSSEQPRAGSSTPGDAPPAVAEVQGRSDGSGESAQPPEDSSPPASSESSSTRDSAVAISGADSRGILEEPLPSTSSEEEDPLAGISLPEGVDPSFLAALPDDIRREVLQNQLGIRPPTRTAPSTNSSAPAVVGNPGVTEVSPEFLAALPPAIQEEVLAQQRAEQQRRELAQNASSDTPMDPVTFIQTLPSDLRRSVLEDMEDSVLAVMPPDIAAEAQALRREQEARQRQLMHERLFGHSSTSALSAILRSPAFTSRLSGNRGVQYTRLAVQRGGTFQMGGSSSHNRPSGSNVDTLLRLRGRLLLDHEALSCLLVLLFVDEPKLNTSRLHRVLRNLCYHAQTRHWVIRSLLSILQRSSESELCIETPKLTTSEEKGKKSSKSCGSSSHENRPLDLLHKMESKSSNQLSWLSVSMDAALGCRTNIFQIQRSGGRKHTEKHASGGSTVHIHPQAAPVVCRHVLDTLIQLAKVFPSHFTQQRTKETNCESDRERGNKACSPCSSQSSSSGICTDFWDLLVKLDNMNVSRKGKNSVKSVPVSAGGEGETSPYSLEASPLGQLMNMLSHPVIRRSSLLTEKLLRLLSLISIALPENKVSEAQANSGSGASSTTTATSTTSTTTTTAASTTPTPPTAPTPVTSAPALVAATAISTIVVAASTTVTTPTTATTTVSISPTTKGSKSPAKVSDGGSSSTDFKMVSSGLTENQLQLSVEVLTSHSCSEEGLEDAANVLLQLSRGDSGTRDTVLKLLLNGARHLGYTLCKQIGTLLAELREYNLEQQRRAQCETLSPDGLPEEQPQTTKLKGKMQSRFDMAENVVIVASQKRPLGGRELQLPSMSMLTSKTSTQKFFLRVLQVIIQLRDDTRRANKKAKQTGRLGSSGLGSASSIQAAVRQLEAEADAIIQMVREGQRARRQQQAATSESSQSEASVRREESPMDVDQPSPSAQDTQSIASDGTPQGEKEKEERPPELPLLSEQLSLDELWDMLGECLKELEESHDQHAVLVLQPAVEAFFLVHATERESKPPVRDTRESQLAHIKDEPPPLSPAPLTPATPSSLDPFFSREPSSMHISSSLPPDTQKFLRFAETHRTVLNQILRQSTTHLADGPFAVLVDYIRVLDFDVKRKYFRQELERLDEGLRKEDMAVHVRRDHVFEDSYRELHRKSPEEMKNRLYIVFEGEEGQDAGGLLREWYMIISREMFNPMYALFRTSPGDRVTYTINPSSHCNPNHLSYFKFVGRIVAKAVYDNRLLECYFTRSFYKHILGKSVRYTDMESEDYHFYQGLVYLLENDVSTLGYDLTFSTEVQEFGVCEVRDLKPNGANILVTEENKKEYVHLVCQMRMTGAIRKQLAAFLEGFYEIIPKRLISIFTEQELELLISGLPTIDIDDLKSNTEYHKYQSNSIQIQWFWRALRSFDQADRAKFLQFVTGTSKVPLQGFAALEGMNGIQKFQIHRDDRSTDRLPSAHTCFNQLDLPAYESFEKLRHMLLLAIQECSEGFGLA
T7 sequence (P26599 whole entry): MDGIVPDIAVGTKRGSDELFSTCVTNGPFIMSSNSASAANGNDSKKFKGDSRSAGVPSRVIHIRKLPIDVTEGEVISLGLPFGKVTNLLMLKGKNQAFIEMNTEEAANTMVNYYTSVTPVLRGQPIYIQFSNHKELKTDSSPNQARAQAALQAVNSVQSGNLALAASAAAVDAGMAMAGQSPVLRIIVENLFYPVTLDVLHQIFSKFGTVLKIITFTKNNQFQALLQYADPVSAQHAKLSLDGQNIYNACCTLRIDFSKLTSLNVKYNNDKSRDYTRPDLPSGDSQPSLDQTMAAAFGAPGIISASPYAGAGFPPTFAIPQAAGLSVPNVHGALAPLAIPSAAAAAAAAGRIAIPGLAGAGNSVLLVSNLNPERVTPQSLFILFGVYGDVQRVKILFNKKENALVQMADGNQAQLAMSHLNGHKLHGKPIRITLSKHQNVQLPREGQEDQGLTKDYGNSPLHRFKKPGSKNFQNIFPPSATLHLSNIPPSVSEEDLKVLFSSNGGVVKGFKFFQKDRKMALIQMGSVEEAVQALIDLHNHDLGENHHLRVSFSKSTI

B1: C-terminal FLAG tagged B3GNT2 (enzyme, human, UniProt Q9NY97 1-397, looked up)
chain: MSVGRRRIKLLGILMMANVFIYFIMEVSKSSSQEKNGKGEVIIPKEKFWKISTPPEAYWNREQEKLNRQYNPILSMLTNQTGEAGRLSNISHLNYCEPDLRVTSVVTGFNNLPDRFKDFLLYLRCRNYSLLIDQPDKCAKKPFLLLAIKSLTPHFARRQAIRESWGQESNAGNQTVVRVFLLGQTPPEDNHPDLSDMLKFESEKHQDILMWNYRDTFFNLSLKEVLFLRWVSTSCPDTEFVFKGDDDVFVNTHHILNYLNSLSKTKAKDLFIGDVIHNAGPHRDKKLKYYIPEVVYSGLYPPYAGGGGFLYSGHLALRLYHITDQVHLYPIDDVYTGMCLQKLGLVPEKHKGFRTFDIEEKNKNNICSYVDLMLVHSRKPQEMIDIWSQLQSAHLKC
notes: Overexpressed in cells and pulled down from the lysate with mouse anti-FLAG antibody; also called C-FLAG B3GNT2; C-term flag; not shown: C-terminal FLAG tag
co-IP mass spectrometry count (LMNA): 22 | co-IP mass spectrometry count (C1orf68): 2 | co-IP mass spectrometry count (HNRNPA2B1): 8 | co-IP mass spectrometry count (G3BP1): 33 | co-IP mass spectrometry count (NUFIP2): 5 | co-IP mass spectrometry count (MYH11): 7 | co-IP mass spectrometry count (PRBP1): 9 | co-IP mass spectrometry count (HUWE1): 0
